{"source": "ChEMBL document CHEMBL1157618", "about": "“Noncovalent tripeptidyl benzyl- and cyclohexyl-amine inhibitors of the cysteine protease caspase-1” (J Med Chem, 2010)", "proteins": {"B1": {"name": "Caspase-1 (Homo sapiens), P29466 (protein)", "chain": "MADKVLKEKRKLFIRSMGEGTINGLLDELLQTRVLNKEEMEKVKRENATVMDKTRALIDSVIPKGAQACQICITYICEEDSYLAGTLGLSADQTSGNYLNMQDSQGVLSSFPAPQAVQDNPAMPTSSGSEGNVKLCSLEEAQRIWKQKSAEIYPIMDKSSRTRLALIICNEEFDSIPRRTGAEVDITGMTMLLQNLGYSVDVKKNLTASDMTTELEAFAHRPEHKTSDSTFLVFMSHGIREGICGKKHSEQVPDILQLNAIFNMLNTKNCPSLKDKPKVIIIQACRGDSPGVVWFKDSVGVSGNLSLPTTEEFEDDAIKKAHIEKDFIAFCSSTPDNVSWRHPTMGSVFIGRLIEHMQEYACSCDVEEIFRKVRFSFEQPDGRAQMPTTERVTLTRCFYLFPGH"}}, "substrate": "CC(C)[C@H](NC(=O)c1ccc2ccccc2c1)C(=O)N[C@@H](C)C(=O)N[C@H](CNCc1ccccc1O)CC(=O)O", "conditions": "Homo sapiens", "description": "Activity of human recombinant caspase 1", "data": [{"protein": "B1", "values": [{"measurement": "Km", "value": 5.8, "unit": "µM"}]}]}
